The results in this text go back to patent publication US20200148774A1.

The target in this experiment is hCD3ε 1-27 Fc (human). Nature of the experiment: SPR (Biacore). In general terms: Surface plasmon resonance follows binding to a sensor surface in real time, without labels.

In general, Kd refers to the equilibrium constant for the complex coming apart. Low readings indicate a tighter complex, high ones a looser complex.

hCD3ε 1-27 Fc (human), sequence (chain, as listed by the source): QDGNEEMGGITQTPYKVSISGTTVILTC

B1: 38E4v1 (antibody, V domains shown)
VH: EVQLVQSGAEVKKPGASVKVSCKASGFTFTSYYIHWVRQAPGQGLEWIGWIYPENDNTKYNEKFKDRVTITADTSTSTAYLELSSLRSEDTAVYYCARDGYSRYYFDYWGQGTLVTVSS
VL: DIVMTQSPDSLAVSLGERATINCKSSQSLLNSRTRKNYLAWYQQKPGQSPKLLIYWTSTRKSGVPDRFSGSGSGTDFTLTISSLQAEDVAVYYCKQSFILRTFGQGTKVEIK
Molecule B1 registered a dissociation constant Kd of 1 nM.

B2: 40G5c (antibody, V domains shown)
VH: EVQLVQSGAEVKKPGASVKVSCKASGYTFTNYYIHWVRQAPGQGLEWIGWIYPGDGNTKYNEKFKGRATLTADTSTSTAYLELSSLRSEDTAVYYCARDSYSNYYFDYWGQGTLVTVSS
VL: DIVMTQSPDSLAVSLGERATINCKSSQSLLNSRTRKNYLAWYQQKPGQPPKLLIYWASTRESGVPDRFSGSGSGTDFTLTISSLQAEDVAVYYCTQSFILRTFGQGTKVEIK
B2: the Kd was 13 nM.
